Experimental data: article PMC5940361, “Human LINE-1 retrotransposition requires a metastable coiled coil and a positively charged N-terminus in L1ORF1p” (eLife, 2018)

Tests used:
[1] = biological target: hL1ORF1p-Δcons (non-conserved N-terminal portion of human L1ORF1p, GPHM1-E103) (human) (UniProt Q9UN81); test: SEC-MALS; hL1ORF1p-Δcons at 5.2 mM, Superdex 75 (10/300 GL), gel filtration buffer; monomer to dimer
[2] = biological target: the molecule itself; test: SEC-MALS; Superdex 200 (10/300 GL), gel filtration buffer (10 mM HEPES pH 7.5, 300 mM NaCl, 1 mM DTT)

Row | stoichiometry N [1] | Molecule | stoichiometry N [2]
1 | 2 | hL1ORF1p-Δcons (non-conserved N-terminal portion of human L1ORF1p, GPHM1-E103) (from UniProt Q9UN81 1-103) (domain or fragment) | –
2 | – | hL1ORF1p-ΔNTR (human L1ORF1p without the NTR, GPHMS53-M338) (domain or fragment, residues printed before S53 in the construct's description (GPHMS53-M338); not from L1ORF1p; also called remainder of human L1ORF1p; truncated trimer; not shown: His6, N-terminal, cleaved) GPHMSELREDIQTKGKEVENFEKNLEECITRITNTEKCLKELMELKTKARELREECRSLRSRCDQLEERVSAAEDEINEIKREGKFREKRIKRNEQSLQEIWDYVKRPNLRLIGVPESDVENGTKLENTLQDIIQENFPNLARQANVQIQEIQRTPQRYSSRRATPRHIIVRFTKVEMKEKMLRAAREKGRVTLKGKPIRLTADLSAETLQARREWGPIFNILKEKNFQPRISYPAKLSFISEGEIKYFIDKQMLRDFVTTRPALKELLKEALNMERNNRYQPLQNHAKM | 3
3 | – | hL1ORF1p-cc (coiled coil domain of human L1ORF1p, GPHMS53-Y152) (domain or fragment, residues printed before S53 in the construct's description (GPHMS53-Y152); not from L1ORF1p; human LINE-1 ORF1 protein (L1ORF1p) of the L1.3 element, residues S53-Y152, amplified from a plasmid with the M121A/M125I/M128I triple mutation; The M of GPHM probably stands at position 52 in place of Y52 (the structure is described as residues 52-152); also called L1ORF1p coiled coil domain; coiled coil …) GPHMSELREDIQTKGKEVENFEKNLEECITRITNTEKCLKELMELKTKARELREECRSLRSRCDQLEERVSAAEDEINEIKREGKFREKRIKRNEQSLQEIWDY | 3
